US20230043577

What was measured:
Assay in all cases: EMSA
[1] = tested on: MeCP2 MBD R133C R133C (Homo sapiens); conditions: same buffer
[2] = target: MeCP2 MBD (hMeCP2[90-181]) wild type (Homo sapiens) (UniProt P51608)
[3] = tested on: MeCP2 MBD S134C S134C (Homo sapiens); conditions: same buffer
[4] = unmodified C in CpG of one strand, 5hmC in the other
[5] = 5hmC in CpG of one strand, 5fC in the other
[6] = 5mC in CpG of one strand, 5fC in the other
[7] = 5mC in CpG of one strand, 5hmC in the other

Chain of MeCP2 MBD (hMeCP2[90-181]) wild type (Homo sapiens) (P51608 90-181): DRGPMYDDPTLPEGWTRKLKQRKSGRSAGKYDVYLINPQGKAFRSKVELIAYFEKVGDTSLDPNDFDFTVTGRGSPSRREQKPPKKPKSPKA

24-mer C/hmC CpG duplex
Kd [1, 4]: 8100 nM
Kd ([2]; unmodified C in CpG of one strand, 5hmC in the other, same buffer): 1080 nM
Kd [3, 4]: 7600 nM

24-mer hmC/fC CpG duplex
Kd [1, 5]: 1630 nM
Kd ([2]; 5hmC in CpG of one strand, 5fC in the other, same buffer): 540 nM
Kd [3, 5]: 4600 nM

24-mer hmC/hmC CpG duplex
Kd ([1]; 5hmC in CpG on both strands): 2560 nM
Kd ([2]; 5hmC in CpG on both strands, same buffer): 970 nM
Kd ([3]; 5hmC in CpG on both strands): 7600 nM

24-mer mC/fC CpG duplex
Kd [1, 6]: 540 nM
Kd ([2]; 5mC in CpG of one strand, 5fC in the other, same buffer): 197 nM
Kd [3, 6]: 790 nM

24-mer mC/hmC CpG duplex
Kd [1, 7]: 660 nM
Kd ([2]; 5mC in CpG of one strand, 5hmC in the other, same buffer): 224 nM
Kd [3, 7]: 1150 nM

24-mer mC/mC CpG duplex
Kd ([1]; 5mC in CpG on both strands): 118 nM
Kd ([2]; 5mC in CpG on both strands, room temperature, 50 ng/uL poly(dA)poly(dT), 20 mM HEPES pH 7.3 buffer): 27 nM
Kd ([3]; 5mC in CpG on both strands): 117 nM
